# Reference: patent publication US10041047B2, “Compositions and methods for epithelial stem cell expansion and culture” (The Brigham and Women's Hospital, Inc., priority 2013, dated 2018)
# B1: R-Spondin 2: agent that binds to the LGR5 receptor (protein, UniProt Q6UXX9 22-243, looked up)
# R-spondin-2: QGNRWRRSKRASYVSNPICKGCLSCSKDNGCSRCQQKLFFFLRREGMRQYGECLHSCPSGYYGHRAPDMNRCARCRIENCDSCFSKDFCTKCKVGFYLHRGRCFDECPDGFAPLEETMECVEGCEVGHWSEWGTCSRNNRTCGFKWGLETRTRQIVKKPVKDTILCPTIAESRRCKMTMRHCPGGKRTPKAKEKRNKKKKRKLIERAQEQHSVFLATDRANQ
# B2: R-spondin 1: agent that binds to the LGR5 receptor, Wnt agonist (protein, UniProt Q2MKA7 21-263, looked up)
# R-spondin-1: SRGIKGKRQRRISAEGSQACAKGCELCSEVNGCLKCSPKLFILLERNDIRQVGVCLPSCPPGYFDARNPDMNKCIKCKIEHCEACFSHNFCTKCKEGLYLHKGRCYPACPEGSSAANGTMECSSPAQCEMSEWSPWGPCSKKQQLCGFRRGSEERTRRVLHAPVGDHAACSDTKETRRCTVRRVPCPEGQKRRKGGQGRRENANRNLARKESKEAGAGSRRRKGQQQQQQQGTVGPLTSAGPA
# B3: Wnt3a: Wnt pathway activator protein (protein, UniProt P56704 19-352, looked up)
# Protein Wnt-3a: SYPIWWSLAVGPQYSSLGSQPILCASIPGLVPKQLRFCRNYVEIMPSVAEGIKIGIQECQHQFRGRRWNCTTVHDSLAIFGPVLDKATRESAFVHAIASAGVAFAVTRSCAEGTAAICGCSSRHQGSPGKGWKWGGCSEDIEFGGMVSREFADARENRPDARSAMNRHNNEAGRQAIASHMHLKCKCHGLSGSCEVKTCWWSQPDFRAIGDFLKDKYDSASEMVVEKHRESRGWVETLRPRYTYFKVPTERDLVYYEASPNFCEPNPETGSFGTRDRTCNVSSHGIDGCDLLCCGRGHNARAERRREKCRCVFHWCCYVSCQECTRVYDVHTCK
# B4: Noggin: inhibitor of Bone Morphogenic Proteins (protein, UniProt Q13253 28-232, looked up)
# Noggin: QHYLHIRPAPSDNLPLVDLIEHPDPIFDPKEKDLNETLLRSLLGGHYDPGFMATSPPEDRPGGGGGAAGGAEDLAELDQLLRQRPSGAMPSEIKGLEFSEGLAQGKKQRLSKKLRRKLQMWLWSQTFCPVLYAWNDLGSRFWPRYVKVGSCFSKRSCSVPEGMVCKPSKSVHLTVLRWRCQRRGGQRCGWIPIQYPIISECKCSC
# How the values were obtained:
# [1] = system: Lgr5+ stem cells in small intestinal crypts; assay: Small intestinal crypt culture from Lgr5-GFP mice in Matrigel: cell proliferation and Lgr5-GFP expression; assay type: cell-based, mouse; details: for requirement of growth factor to maintain self-renewal of Lgr5+ stem cells: crypts 6 days in the CV condition (CHIR 3 μM, VPA 1 mM)
# Procedure: Crypts and single Lgr5-GFP cells were isolated as previously described (Sato et al., 2009). Briefly, the proximal half of the small intestine was harvested, opened longitudinally, and washed with cold PBS to remove luminal content. The tissue was then cut into 2-4 mm pieces with scissors and further washed 5-10 times with cold PBS by pipetting up and down using a 10-ml pipette. Tissue fragments were incubated with 2 mM EDTA in PBS for 30 min on ice. After removal of EDTA, tissue fragments were washed with PBS to release crypts. Supernatant fractions enriched in crypts were collected, passed through a 70 μm cell strainer and centrifuged at 300 g for 5 minutes. The cell pellet was re-suspended with cell culture media without growth factors and centrifuged at 150 g to remove single cells. Crypts were then cultured or used for single cell isolation. To obtain single cells, crypts were incubated in culture medium for 45 minutes at 37° C. and triturated with a glass pipette. Dissociated cells were passed through 20 μm cell strainer, negative stained with propidium iodide and single viable GFP-high cells were sorted by flow cytometry (FACS Aria, BD) as previously described (Sato et al., 2009). Small intestinal crypts isolated from Lgr5-EGFP-ires-CreERT2 mice were embedded in Matrigel and cultured under conventional culture conditions in the presence of EGF, Noggin and R-spondin 1 (collectively referred to as ENR) leading to organoids with crypts and villus-like domains and GFP^+ cells at the crypt tips, consistent with previous reports (Sato et al., 2009). Isolated crypts or single cells were cultured as previously described (Sato et al., 2009) with minimal modification. Briefly, crypts or single cells were entrapped in Matrigel and plated at the center of wells in a 24-well plate. After polymerization of Matrigel (growth factor reduced; BD Bioscience), 500 μl of culture medium (Advanced DMEM/F12 (Life Technologies)) was added containing growth factors including EGF (50 ng/ml, Life Technologies), Noggin (100 ng/ml, Peprotech) and R-spondin 1 (500 ng/ml, R&D) and small molecules including CHIR99021 (3 μM, Stemgent) and Valproic Acid (1 mM, Sigma-Aldrich). For comparison of different culture conditions, small molecules or growth factors were added to freshly isolated crypts immediately after plating in Matrigel to test the ability to minimize potential differentiation of the ISC within the crypts and thus sustain crypt cultures. Cell culture media was changed every other day. For single cell culture, cells were embedded in Matrigel containing Jagged-1 peptide (1 μM; AnaSpec) and Y-27632 (10 μM; Tocris) was added for the first 2 days. Cells were passaged either as cell colonies as previously described (Sato et al., 2009) or as single cells. […]
# [2] = system: Lgr5+ stem/progenitor cells derived from the mouse inner ear; assay: Culture of inner ear (cochlear) Lgr5-GFP epithelial cells in Matrigel; assay type: cell-based; details: 8 day cultures; added to EGF+CV or to the EGF+bFGF combination (FIG. 14D, 14E)
# From the text: The same culture condition (EGF, Noggin, R-spondin1, or “ENR”) as used in Lgr5+ small intestinal stem cell cultures was first established.
# Isolated organ of Corti from Lgr5-GFP mice were dissociated into single cells using accutase and cultured in multiple combinations of soluble factors and small molecules in Matrigel for 8 days. The resulting cultures were further dissociated into single cells and analyzed using FACS. […] In addition, the combination of EGF, bFGF and IGF-1 (designated as EFI) improved cell proliferation and GFP expression compared with the ENR condition (FIG. 14A-14C).
# To further investigate the effects of individual growth factors when combined with CHIR and VPA, growth factors including Mitogenic growth factors (EGF, bFGF and IGF-1) as well as the Wnt agonist R-spondin 1 in combination with CHIR and VPA were tested.
molecule,measurement,setting,value
B1,organoid formation (number of organoids formed at day 5),"[1]; ENR condition, R-spondin 2 compared to R-spondin 1 at multiple concentrations",better efficacy at lower concentrations
B2,requirement of growth factor to maintain self-renewal of Lgr5+ stem cells,[1],still required
same,GFP expression on addition of a growth factor,[2],slightly increased
B3,cell proliferation of crypt cells (organoid size and cell numbers),"[1]; crypts cultured 6 days, agent added to ENR condition, compared to ENR",increased crypt proliferation
B4,requirement of growth factor to maintain self-renewal of Lgr5+ stem cells,[1],still required
